# Assay results published in paper PMC9618136 (2022).
# B1: OsExo70F2, N-terminally truncated, purified (domain or fragment)
# chain: ISAAAFDAAEQLIQVWDGTPEALVFEATEDEVAEYLSAVDVAIEHLARGSGGGAGGAGSSSSSTAGRAGVAVQLAMARLEEELRHLMVRHAVPLDPTGLFFSLRRLSLGSMDDLDTSSEFDAATPHSIDVAPETARGGPLVNPFEDQVFDPVRPEAVDDLRAIADRMARAGYSRELADAYCGIRRDLLDEYLSALGVERLSIDEVQRIEWKHLNDKMKKWVQAVKTVVRVLLAGERRLCDQVLSVSDELREECFIESTKGCIMQILSFGDAVAVCPRSPEKLSRILDMYEALAEVIPEMKDLCLGSSGDGVISDVQANLDRLGDAIRGTLFEFGKVLQLESSRRAMTAGEIHPMTRYVMNYLRLLVVYSDTLDALLDDNADDQIDLARAEDQDQEHLESMTPLGKRLLKLISYLEANLEEKSKLYEDSALECIFSMNNLLYIVQKVRDSELGKILGDHWVKRRNGKIRQYSKSYLRISWMKVLSFLKDDGHGSGSGSSSGSGSGHSSSRMSIKEKFKNFNLAFEEIYRNQTTWKVPDPQLREELKISISENVIPAYRAFLGRYGSQVDGGRNSGKYIKYTPEDLESQLSDLFEGAPGPANHSRRRT
# Molecular target: AVR-Pii effector domain (residues 20 to 70), purified (Magnaporthe oryzae)
# Test: ITC
binder,measurement,value
B1,Kd,< 1 nM
